No end group written: not given here.
B1: CCNB1 207-221 (peptide)
peptide: DWLVQVQMKFRLLQE-NH2
B2: CCNB1 250-264 (peptide)
peptide: TAMFIASKYEEMYPP-NH2
B3: CCNB1 212-226 (peptide)
peptide: VQMKFRLLQETMYMT-NH2
B4: CCNB1 221-235 (peptide)
peptide: ETMYMTVSIIDRFMQ-NH2
B5: CCNB1 374-388 (peptide)
peptide: ESLLPVMQHLAKNVV-NH2
B6: CCNB1 195-209 (peptide)
peptide: REVTGNMRAILIDWL-NH2
B7: CCNB1 164-178 (peptide)
peptide: PNLCSEYVKDIYAYL-NH2
B8: CCNB1 113-127 (peptide)
peptide: EKLSPEPILVDTASP-NH2
B9: CCNB1 269-283 (peptide)
peptide: FAFVTDNTYTKHQIR-NH2
B10: CCNB1 144-158 (peptide)
peptide: QAFSDVILAVNDVDA-NH2
B11: CCNB1 264-278 (peptide)
peptide: PEIGDFAFVTDNTYT-NH2
B12: CCNB1 369-383 (peptide)
peptide: LSYTEESLLPVMQHL-NH2
B13: CCNB1 299-313 (peptide)
peptide: RPLPLHFLRRASKIG-NH2
B14: CCNB1 267-281 (peptide)
peptide: GDFAFVTDNTYTKHQ-NH2
B15: CCNB1 280-294 (peptide)
peptide: HQIRQMEMKILRALN-NH2
B16: CCNB1 118-132 (peptide)
peptide: EPILVDTASPSPMET-NH2

target: T1, HLA-DP402 (HLA-DPB1*04:02) (human, UniProt P20036 29-222); assay: competition ELISA vs biotin-Oxy 271-287
T1 construct: mature; purified from homozygous EBV-transformed lymphoblastoid cells with antibody B7/21

First: B1
Second: B2
The relative affinity of the first is higher: 171 for the first, 1 for the second.

Going from B3 to B4, the relative affinity rises from 9 to 68.

target: T2, HLA-DP401 (HLA-DPB1*04:01) (human, UniProt P20036 29-222); assay: competition ELISA vs biotin-Oxy 271-287
T2 construct: mature; purified from homozygous EBV-transformed lymphoblastoid cells with antibody B7/21

First: B2
Second: B3
The relative affinity of the first is lower: 0.1 for the first, 110 for the second.

B4 was tested, and the relative affinity was 59.

target: T3, HLA-DRB4 (HLA-DRB4*01:01) (human); assay: competition ELISA vs biotin-E2/E168
T3 construct: mature; purified from homozygous EBV-transformed lymphoblastoid cells with antibody L243

B5 showed a relative affinity of 424.

target: T3, HLA-DRB4 (HLA-DRB4*01:01); assay: competition ELISA vs biotin-E2/E168; remark: another data set of the same source

Compared with B6, B7 is higher in relative affinity: 23 for the first, 40 for the second.

For B8, the relative affinity was 231.

target: T4, HLA-DR3 (HLA-DRB1*03:01) (human); assay: competition ELISA vs biotin-MT 2-16
T4 construct: mature; purified from homozygous EBV-transformed lymphoblastoid cells with antibody L243

Compared with B6, B9 is lower in relative affinity: 1 for the first, 0.1 for the second.

First: B10
Second: B11
The relative affinity of the first is lower: 8 for the first, 85 for the second.

Work on B8 yielded a relative affinity of 6.

target: T5, HLA-DRB5 (HLA-DRB5*01:01) (human); assay: competition ELISA vs biotin-HA 306-318;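 note: HLA and competitor incubated 24 to 72 h, maximal signal taken from wells lacking competitor, background from wells lacking HLA molecule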
T5 construct: mature; purified from homozygous EBV-transformed lymphoblastoid cells with antibody L243

First: B6
Second: B9
The relative affinity of the first is higher: 1410 for the first, 42 for the second.

Going from B12 to B7, the relative affinity falls from 1380 to 500.

With B11 the relative affinity was 61.

target: T6, HLA-DR11 (HLA-DRB1*11:01) (human); assay: competition ELISA vs biotin-HA 306-318;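 note: HLA and competitor incubated 24 to 72 h, maximal signal taken from wells lacking competitor, background from wells lacking HLA molecule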
T6 construct: mature; purified from homozygous EBV-transformed lymphoblastoid cells with antibody L243

Compared with B6, B9 is higher in relative affinity: 1180 for the first, 2190 for the second.

Compared with B12, B11 is higher in relative affinity: 45 for the first, 1670 for the second.

target: T7, HLA-DR4 (HLA-DRB1*04:01) (human); assay: competition ELISA vs biotin-HA 306-318;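 note: HLA and competitor incubated 24 to 72 h, maximal signal taken from wells lacking competitor, background from wells lacking HLA molecule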
T7 construct: mature; purified from homozygous EBV-transformed lymphoblastoid cells with antibody L243

Compared with B6, B9 is lower in relative affinity: 260 for the first, 0.4 for the second.

Compared with B12, B10 is lower in relative affinity: 58 for the first, 12 for the second.

Compared with B7, B11 is lower in relative affinity: 527 for the first, 2 for the second.

For B8, the relative affinity was 55.

target: T8, HLA-DR1 (HLA-DRB1*01:01) (human); assay: competition ELISA vs biotin-HA 306-318;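 note: HLA and competitor incubated 24 to 72 h, maximal signal taken from wells lacking competitor, background from wells lacking HLA molecule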
T8 construct: mature; class II HLA molecule purified from homozygous EBV-transformed lymphoblastoid cells with antibody L243

Compared with B6, B9 is higher in relative affinity: 55 for the first, 1340 for the second.

First: B12
Second: B10
The relative affinity of the first is lower: 212 for the first, 1730 for the second.

Going from B7 to B11, the relative affinity rises from 2830 to 7000.

In the case of B8, the relative affinity is reported as 6000.

target: T9, HLA-DR15 (HLA-DRB1*15:01) (human); assay: competition ELISA vs biotin-A3 152-166
T9 construct: mature; purified from homozygous EBV-transformed lymphoblastoid cells with antibody L243

Going from B13 to B1, the relative affinity falls from 200 to 7.

Compared with B2, B3 is higher in relative affinity: 9 for the first, 46 for the second.

First: B14
Second: B4
The relative affinity of the first is higher: 86 for the first, 0.3 for the second.

target: T10, HLA-DRB3 (HLA-DRB3*01:01) (human); assay: competition ELISA vs biotin-LOL 191-210
T10 construct: mature; purified from homozygous EBV-transformed lymphoblastoid cells with antibody L243

Going from B1 to B2, the relative affinity falls from 160 to 34.

First: B3
Second: B14
The relative affinity of the first is lower: 34 for the first, 38 for the second.

B4 showed a relative affinity of 22.

target: T11, HLA-DR13 (HLA-DRB1*13:01) (human); assay: competition ELISA vs biotin-B1 21-36
T11 construct: mature; purified from homozygous EBV-transformed lymphoblastoid cells with antibody L243

For B6, the relative affinity was 45.

target: T9, HLA-DR15 (HLA-DRB1*15:01); assay: competition ELISA vs biotin-A3 152-166; remark: another data set of the same source

Going from B15 to B16, the relative affinity rises from 0.3 to 400.

B5 showed a relative affinity of 19.

target: T3, HLA-DRB4 (HLA-DRB4*01:01); assay: competition ELISA vs biotin-E2/E168; remark: another data set of the same source

Compared with B13, B1 is higher in relative affinity: 13 for the first, 49 for the second.

Compared with B3, B4 is lower in relative affinity: 683 for the first, 7 for the second.

target: T10, HLA-DRB3 (HLA-DRB3*01:01); assay: competition ELISA vs biotin-LOL 191-210; remark: another data set of the same source

Going from B6 to B9, the relative affinity rises from 20 to 34.

Going from B12 to B10, the relative affinity falls from 72 to 18.

Going from B7 to B11, the relative affinity falls from 53 to 19.

For B8, the relative affinity was 151.

target: T4, HLA-DR3 (HLA-DRB1*03:01); assay: competition ELISA vs biotin-MT 2-16; remark: another data set of the same source

First: B15
Second: B16
The relative affinity of the first is lower: 0.2 for the first, 0.4 for the second.

In the case of B5, the relative affinity is reported as 764.

target: T12, HLA-DR7 (HLA-DRB1*07:01) (human); assay: competition ELISA vs biotin-YKL
T12 construct: mature; purified from homozygous EBV-transformed lymphoblastoid cells with antibody L243

Compared with B13, B1 is lower in relative affinity: 35 for the first, 7 for the second.

Going from B2 to B3, the relative affinity rises from 4 to 40.

First: B14
Second: B4
The relative affinity of the first is higher: 22 for the first, 1 for the second.

target: T11, HLA-DR13 (HLA-DRB1*13:01); assay: competition ELISA vs biotin-B1 21-36; remark: another data set of the same source

Work on B5 yielded a relative affinity of 6.

target: T9, HLA-DR15 (HLA-DRB1*15:01); assay: competition ELISA vs biotin-A3 152-166; remark: another data set of the same source

Going from B6 to B9, the relative affinity falls from 30 to 17.

Going from B12 to B10, the relative affinity falls from 350 to 46.

First: B7
Second: B11
The relative affinity of the first is lower: 28 for the first, 300 for the second.

target: T5, HLA-DRB5 (HLA-DRB5*01:01); assay: competition ELISA vs biotin-HA 306-318; remark: another data set of the same source

Compared with B15, B5 is higher in relative affinity: 4 for the first, 91 for the second.

target: T6, HLA-DR11 (HLA-DRB1*11:01); assay: competition ELISA vs biotin-HA 306-318; remark: another data set of the same source

Compared with B15, B5 is lower in relative affinity: 2000 for the first, 0.3 for the second.

target: T7, HLA-DR4 (HLA-DRB1*04:01); assay: competition ELISA vs biotin-HA 306-318; remark: another data set of the same source

Compared with B15, B16 is lower in relative affinity: 0.4 for the first, 0.3 for the second.

In the case of B5, the relative affinity is reported as 91.

target: T8, HLA-DR1 (HLA-DRB1*01:01); assay: competition ELISA vs biotin-HA 306-318; remark: another data set of the same source

Going from B15 to B16, the relative affinity rises from 1220 to 6360.

For B5, the relative affinity was 837.

target: T5, HLA-DRB5 (HLA-DRB5*01:01); assay: competition ELISA vs biotin-HA 306-318; remark: another data set of the same source

Compared with B13, B1 is lower in relative affinity: 26 for the first, 5 for the second.

Going from B2 to B3, the relative affinity falls from 82 to 2.

First: B14
Second: B4
The relative affinity of the first is higher: 24 for the first, 1 for the second.

target: T6, HLA-DR11 (HLA-DRB1*11:01); assay: competition ELISA vs biotin-HA 306-318; remark: another data set of the same source

First: B13
Second: B1
The relative affinity of the first is lower: 0.1 for the first, 0.4 for the second.

First: B2
Second: B3
The relative affinity of the first is higher: 6 for the first, 5 for the second.

Compared with B14, B4 is lower in relative affinity: 1330 for the first, 1 for the second.

target: T7, HLA-DR4 (HLA-DRB1*04:01); assay: competition ELISA vs biotin-HA 306-318; remark: another data set of the same source

Compared with B13, B2 is lower in relative affinity: 624 for the first, 70 for the second.

Going from B3 to B14, the relative affinity falls from 2 to 1.

Work on B4 yielded a relative affinity of 37.

target: T8, HLA-DR1 (HLA-DRB1*01:01); assay: competition ELISA vs biotin-HA 306-318; remark: another data set of the same source

First: B13
Second: B1
The relative affinity of the first is higher: 63 for the first, 38 for the second.

Going from B2 to B3, the relative affinity falls from 22 to 1.

First: B14
Second: B4
The relative affinity of the first is higher: 1500 for the first, 89 for the second.

target: T10, HLA-DRB3 (HLA-DRB3*01:01); assay: competition ELISA vs biotin-LOL 191-210; remark: another data set of the same source

First: B15
Second: B16
The relative affinity of the first is higher: 53 for the first, 12 for the second.

target: T1, HLA-DP402 (HLA-DPB1*04:02); assay: competition ELISA vs biotin-Oxy 271-287; remark: another data set of the same source

First: B6
Second: B12
The relative affinity of the first is higher: 791 for the first, 1 for the second.

Going from B7 to B8, the relative affinity falls from 625 to 71.

target: T2, HLA-DP401 (HLA-DPB1*04:01); assay: competition ELISA vs biotin-Oxy 271-287; remark: another data set of the same source

Going from B6 to B12, the relative affinity falls from 725 to 4.

Compared with B10, B7 is higher in relative affinity: 51 for the first, 274 for the second.

In the case of B8, the relative affinity is reported as 72.

target: T12, HLA-DR7 (HLA-DRB1*07:01); assay: competition ELISA vs biotin-YKL; remark: another data set of the same source

Going from B15 to B5, the relative affinity falls from 462 to 3.

target: T11, HLA-DR13 (HLA-DRB1*13:01); assay: competition ELISA vs biotin-B1 21-36; remark: another data set of the same source

First: B13
Second: B1
The relative affinity of the first is lower: 0.2 for the first, 1 for the second.

First: B2
Second: B3
The relative affinity of the first is higher: 3 for the first, 1 for the second.

Going from B14 to B4, the relative affinity falls from 62 to 59.

target: T4, HLA-DR3 (HLA-DRB1*03:01); assay: competition ELISA vs biotin-MT 2-16; remark: another data set of the same source

Compared with B1, B2 is higher in relative affinity: 0.5 for the first, 4 for the second.

First: B3
Second: B14
The relative affinity of the first is higher: 1 for the first, 0.2 for the second.

Binder B4 has a relative affinity of 0.5.

target: T12, HLA-DR7 (HLA-DRB1*07:01); assay: competition ELISA vs biotin-YKL; remark: another data set of the same source

Compared with B9, B12 is lower in relative affinity: 577 for the first, 91 for the second.

First: B7
Second: B11
The relative affinity of the first is lower: 73 for the first, 86 for the second.

— US20180086804A1 (COMMISSARIAT A L ENERGIE ATOMIQUE ET AUX ENERGIES …, published 2018)
